B1: TM1088A (natural protein, T. maritima, UniProt D3KFX7 1-143, looked up)
chain: MSKKQKSKYIVIFGCGRLGSLIANLASSSGHSVVVVDKNEYAFHRLNSEFSGFTVVGDAAEFETLKECGMEKADMVFAFTNDDSTNFFISMNARYMFNVENVIARVYDPEKIKIFEENGIKTICPAVLMIEKVKEFIIGSEED
notes: TM1088A of Thermotoga maritima MSB8 (DSM3109), full length, residues 1-143, 16.0 kDa; UniProt D3KFX7_THEMA; first open reading frame of the TM1088 locus; The same construct was purified alone (2G1U) and in complex with untagged TM1088B (3L4B) from one plasmid by different purification schemes; AMP co-purified with it; Tag residues are numbered Met(-11) to 0; also called TM_1087.1; N2 domain; …
B2: TM1088B C-terminal domain (domain or fragment, T. maritima, UniProt D3KFX8 140-218, looked up)
chain: IPLEQGIEFLSVNVEEDSPVVGKKLKDLPLPRDSIIAAIVRGGVLVVPRGDTEILSGDKLYVIVSAEAKETVEETLLGR
notes: TM1088B of Thermotoga maritima MSB8 (DSM3109), C-terminal domain, residues 140-218; UniProt D3KFX8_THEMA; Crystallised with the tag intact; also called TM1088B (residues 140-218); C1 domain; source: E. coli HK100, plasmid pSpeedET-TM1088B, purified (Ni-NTA agarose)
B3: TM1088B (natural protein, T. maritima, UniProt D3KFX8 1-218, looked up)
chain: MKVIIIGGETTAYYLARSMLSRKYGVVIINKDRELCEEFAKKLKATIIHGDGSHKEILRDAEVSKNDVVVILTPRDEVNLFIAQLVMKDFGVKRVVSLVNDPGNMEIFKKMGITTVLNLTTLITNTVEALIFPDEFSSIIPLEQGIEFLSVNVEEDSPVVGKKLKDLPLPRDSIIAAIVRGGVLVVPRGDTEILSGDKLYVIVSAEAKETVEETLLGR
notes: TM1088B of Thermotoga maritima MSB8 (DSM3109), full length, residues 1-218, 24.0 kDa; UniProt D3KFX8_THEMA; also called N1 and C1 domains

In data set [1] the target is T1, TM1088A (Thermotoga maritima, UniProt D3KFX7).
T1 construct: gene TM1088
As to the kind of experiment: X-ray crystal structure, […] Å. Particulars: AMP co-purified from E. coli host, not added; nucleotide site GXGXXG (Gly14/Gly16/Gly19), Arg17, Ala59, Arg105; crystallised pH 6.5. The class given is binding.

The target of data set [2] is B3. As to the kind of experiment: crystal structure; TM1088A:TM1088B octameric assembly (4 TM1088A, 4 TM1088B, 4 AMP in the asymmetric unit), 3.45 Å, PDB 3L4B; complex at 3 mg/ml with NADH added 1.1:1.0; 0.1 M magnesium chloride, 15% PEG 4000, 0.1 M HEPES pH 7.0. Conditions: both partners purified.
Data set [3] concerns the molecule itself. As to the kind of experiment: crystal structure; TM1088A alone, 1.50 Å, PDB 2G1U; one molecule in the asymmetric unit, dimer formed in the crystal lattice; 40% MPD, 5% PEG-8000, 0.1 M cacodylate pH 6.5, 293 K.
Data set [4] deals with the molecule itself. As to the kind of experiment: crystal structure; TM1088B C-terminal domain (140-218) alone, tag intact, 1.55 Å, PDB 3JXO; two chains in the asymmetric unit; 25% ethylene glycol, 293 K.
Data set [5] concerns the molecule itself. The data set can be described thus: crystal structure; TM1088A:TM1088B octameric assembly (4 TM1088A, 4 TM1088B, 4 AMP in the asymmetric unit), 3.45 Å, PDB 3L4B; complex at 3 mg/ml with NADH added 1.1:1.0; 0.1 M magnesium chloride, 15% PEG 4000, 0.1 M HEPES pH 7.0.

As to `Nc1ncnc2c1ncn2[C@@H]1O[C@H](COP(=O)(O)O)[C@@H](O)[C@H]1O` [AMP], the “X-ray crystal structure, 1.50 Å” value in data set [1] was “AMP was co-purified with TM1088A and appears in both the high-resolution TM1088A structure”.

With B1, the binding result in data set [2] is given as “binds”. Further, the stoichiometry N (commonly a count of units in the complex or per binding partner) in data set [3] is 2.

In the case of B2, the “stoichiometry N” value in data set [4] turned out to be 2.

With B3, in data set [5], the “stoichiometry N” value came out at 2.

The values are drawn from PMC4380455 (PLoS ONE, 2015).
